The values that follow come from patent US20150299285A1.

Where two headings read alike, the source gives them in different places.

Test [1] addresses insulin receptor subtype A (human) (UniProt P06213). The test is described as follows: cell-based or functional assay.
Test [2] has as its target insulin receptor subtype B (human) (UniProt P06213). In words: cell-based or functional assay.
For test [3], the target named is insulin receptor subtype A (human) (UniProt P06213). The test is described as follows: IR-A Binding, competition with 125I-insulin.
Test [4] has the same target. The test is described as follows: cell-based or functional assay. This is another data set of the same source.
Test [5] addresses insulin receptor subtype B (human) (UniProt P06213). In words: cell-based or functional assay. The source holds these as a separate data set.

“native IGF-1 (from UniProt P05019 49-118) (ligand)” returned an EC50, Receptor Phosphorylation in test [1] of 6.48 nM. In test [2], the EC50, Receptor Phosphorylation amounted to 32.2 nM. In test [3], this substance registered an IC50 of 18.8 nM. In test [4], this substance displayed an EC50, IR-A Phosphorylation of 29.2 nM; an EC50, Receptor Phosphorylation of 10 nM; an EC50, phosphorylation (FIG. 18A) of 2.24 nM; an IC50 (so named in p-1063), Phosphorylation at Insulin Receptor Subtype A of 146 nM. In test [5], this substance showed an EC50, Receptor Phosphorylation of 16.6 nM; an EC50, phosphorylation (FIG. 18B) of 32.4 nM; an IC50 (so named in p-1063), Phosphorylation at Insulin Receptor Subtype B of 19.7 nM.

As a reminder, the IC50 is the point on the concentration scale where inhibition reaches its midpoint. Low values mean higher potency, high ones lower potency.
